From paper PMC9598763, “WDR73 Depletion Destabilizes PIP4K2C Activity and Impairs Focal Adhesion Formation in Galloway–Mowat Syndrome” (Biology, 2022)

Tests used:
[1] = target: T1, PIP4K2C on the HuProt human proteome microarray (human, UniProt Q8TBX8 1-421); assay: peptide or protein array; Cy3-tagged His-WDR73 incubated on the HuProt v4.0 20K Human Proteome Microarray (purified human proteins as N-terminal GST fusions) overnight at 4 °C, washed, scanned; candidates by Z-score > 3; settings: both partners purified
T1 construct: PIP4K2C, phospholipid kinase, human; spotted on the array as N-terminal GST fusion; source: bought: HuProt v4.0 20K Human Proteome Microarray (CDI Laboratories), purified human proteins; not shown: GST, N-terminal, kept
T1 sequence (looked up): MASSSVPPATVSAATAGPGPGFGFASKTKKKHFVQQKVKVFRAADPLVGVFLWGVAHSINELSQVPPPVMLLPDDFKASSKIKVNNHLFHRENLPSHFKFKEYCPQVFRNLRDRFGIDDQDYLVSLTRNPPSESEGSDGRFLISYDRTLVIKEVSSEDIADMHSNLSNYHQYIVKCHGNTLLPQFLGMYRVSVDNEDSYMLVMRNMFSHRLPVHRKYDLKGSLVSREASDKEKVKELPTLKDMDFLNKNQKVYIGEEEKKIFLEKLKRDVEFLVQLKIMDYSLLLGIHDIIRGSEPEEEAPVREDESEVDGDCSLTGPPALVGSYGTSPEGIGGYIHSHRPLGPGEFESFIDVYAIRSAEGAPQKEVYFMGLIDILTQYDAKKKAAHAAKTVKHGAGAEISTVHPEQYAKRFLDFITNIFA

[2] = target: T2, PIP4K2A on the HuProt human proteome microarray (human, UniProt P48426 1-406); assay: as above; settings: both partners purified
T2 construct: PIP4K2A, human; spotted on the array as N-terminal GST fusion; source: bought: HuProt v4.0 20K Human Proteome Microarray (CDI Laboratories), purified human proteins; not shown: GST, N-terminal, kept
T2 sequence (looked up): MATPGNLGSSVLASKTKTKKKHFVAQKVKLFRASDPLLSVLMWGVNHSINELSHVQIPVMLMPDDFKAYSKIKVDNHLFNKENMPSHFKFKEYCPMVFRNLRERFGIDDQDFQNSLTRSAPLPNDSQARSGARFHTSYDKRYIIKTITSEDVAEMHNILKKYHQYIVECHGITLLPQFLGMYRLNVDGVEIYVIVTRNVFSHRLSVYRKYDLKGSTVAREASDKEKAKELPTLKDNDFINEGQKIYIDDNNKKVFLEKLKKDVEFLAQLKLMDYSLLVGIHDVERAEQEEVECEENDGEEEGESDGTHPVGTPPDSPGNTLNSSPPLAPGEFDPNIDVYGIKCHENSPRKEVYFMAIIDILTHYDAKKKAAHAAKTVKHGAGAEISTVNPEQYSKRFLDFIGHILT

binding result [1]: binds | binding result [2]: binds
B1: Cy3-tagged His-WDR73 (natural protein, human, UniProt Q6P4I2 1-378, looked up)
chain: MDPGDDWLVESLRLYQDFYAFDLSGATRVLEWIDDKGVFVAGYESLKKNEILHLKLPLRLSVKENKGLFPERDFKVRHGGFSDRSIFDLKHVPHTRLLVTSGLPGCYLQVWQVAEDSDVIKAVSTIAVHEKEESLWPRVAVFSTLAPGVLHGARLRSLQVVDLESRKTTYTSDVSDSEELSSLQVLDADTFAFCCASGRLGLVDTRQKWAPLENRSPGPGSGGERWCAEVGSWGQGPGPSIASLGSDGRLCLLDPRDLCHPVSSVQCPVSVPSPDPELLRVTWAPGLKNCLAISGFDGTVQVYDATSWDGTRSQDGTRSQVEPLFTHRGHIFLDGNGMDPAPLVTTHTWHPCRPRTLLSATNDASLHVWDWVDLCAPR
modifications: labeled with Cy3 (CyDye Protein Labelling CY3 MONO 5-PACK, GE)
notes: WDR73 (WD40-repeat-containing protein), human; Probe of the HuProt microarray; also called recombinant His-WDR73 fusion protein; purified human WDR73 protein; source: recombinant, purified by MerryBio Co., Ltd
